# B1: GAL4-DBC-1-C terminal chimera (amino acids 479-923) (other, yeast;human, UniProt P04386 1-147, looked up)
# chain: MKLLSSIEQACDICRLKKLKCSKEKPKCAKCLKNNWECRYSPKTKRSPLTRAHLTEVESRLERLEQLFLLIFPREDLDMILKMDSLQDIKALLTGLFVQDNVNKDAVTDRLASVETDMPLTLRQHRISATSSSEESSNKGQRQLTVSRRNAETPEATTQQETDTDLPEAPPPPLEPAVIARPGCVNLSLHGIVEDRRPKERISFEVMVLAELFLEMLQRDFGYRVYKMLLSLPEKVVSPPEPEKEEAAKEEATKEEEAIKEEVVKEPKDEAQNEGPATESEAPLKEDGLLPKPLSSGGEEEEKPRGEASEDLCEMALDPELLLLRDDGEEEFAGAKLEDSEVRSVASNQSEMEFSSLQDMPKELDPSAVLPLDCLLAFVFFDANWCGYLHRRDLERILLTLGIRLSAEQAKQLVSRVVTQNICQYRSLQYSRQEGLDGGLPEEVLFGNLDLLPPPGKSTKPGAAPTEHKALVSHNGSLINVGSLLQRAEQQDSGRLYLENKIHTLELKLEESHNRFSATEVTNKTLAAEMQELRVRLAEAEETARTAERQKSQLQRLLQELRRRLTPLQLEIQRVVEKADSWVEKEEPAPSN
# notes: Expressed in HeLa cells for the mammalian two-hybrid assay
# Target: T1, VP16-ERα chimera (full-length ERα fused to the Herpes simplex virus VP16 transactivation domain) (Herpes simplex virus, UniProt P03372 1-595)
# T1 construct: Expressed in HeLa cells for the mammalian two-hybrid assay; also called pACT-ERα
# T1 sequence: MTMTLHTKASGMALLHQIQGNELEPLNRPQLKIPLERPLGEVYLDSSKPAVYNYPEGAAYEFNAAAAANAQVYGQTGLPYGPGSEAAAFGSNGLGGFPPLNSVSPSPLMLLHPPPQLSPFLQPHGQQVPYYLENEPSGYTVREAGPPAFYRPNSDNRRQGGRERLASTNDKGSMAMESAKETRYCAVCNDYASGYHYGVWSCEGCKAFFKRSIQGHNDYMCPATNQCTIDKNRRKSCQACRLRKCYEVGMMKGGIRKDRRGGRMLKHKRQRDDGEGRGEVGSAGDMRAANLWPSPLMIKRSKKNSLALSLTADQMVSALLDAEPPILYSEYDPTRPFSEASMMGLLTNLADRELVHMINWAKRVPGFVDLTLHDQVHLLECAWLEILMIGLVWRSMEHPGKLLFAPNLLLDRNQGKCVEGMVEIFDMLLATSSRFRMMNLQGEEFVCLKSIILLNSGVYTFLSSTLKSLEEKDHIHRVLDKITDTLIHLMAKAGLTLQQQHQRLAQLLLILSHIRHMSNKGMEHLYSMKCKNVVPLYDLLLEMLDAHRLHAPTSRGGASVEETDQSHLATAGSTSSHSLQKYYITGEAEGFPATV
# Assay: mammalian two-hybrid (luciferase reporter) in HeLa cells, hormone-free
binder,measurement,value
B1,binding result,no binding

# Reference: patent US20090062179A1 (University of Texas, published 2009)
